Test results as given in publication PMC10786891, “Massively parallel profiling of RNA-targeting CRISPR-Cas13d”.

T1: EsCas13d, nuclease-dead (Eubacterium siraeum, UniProt B0MS50, R295A;H300A;R849A;H854A)
T1 sequence: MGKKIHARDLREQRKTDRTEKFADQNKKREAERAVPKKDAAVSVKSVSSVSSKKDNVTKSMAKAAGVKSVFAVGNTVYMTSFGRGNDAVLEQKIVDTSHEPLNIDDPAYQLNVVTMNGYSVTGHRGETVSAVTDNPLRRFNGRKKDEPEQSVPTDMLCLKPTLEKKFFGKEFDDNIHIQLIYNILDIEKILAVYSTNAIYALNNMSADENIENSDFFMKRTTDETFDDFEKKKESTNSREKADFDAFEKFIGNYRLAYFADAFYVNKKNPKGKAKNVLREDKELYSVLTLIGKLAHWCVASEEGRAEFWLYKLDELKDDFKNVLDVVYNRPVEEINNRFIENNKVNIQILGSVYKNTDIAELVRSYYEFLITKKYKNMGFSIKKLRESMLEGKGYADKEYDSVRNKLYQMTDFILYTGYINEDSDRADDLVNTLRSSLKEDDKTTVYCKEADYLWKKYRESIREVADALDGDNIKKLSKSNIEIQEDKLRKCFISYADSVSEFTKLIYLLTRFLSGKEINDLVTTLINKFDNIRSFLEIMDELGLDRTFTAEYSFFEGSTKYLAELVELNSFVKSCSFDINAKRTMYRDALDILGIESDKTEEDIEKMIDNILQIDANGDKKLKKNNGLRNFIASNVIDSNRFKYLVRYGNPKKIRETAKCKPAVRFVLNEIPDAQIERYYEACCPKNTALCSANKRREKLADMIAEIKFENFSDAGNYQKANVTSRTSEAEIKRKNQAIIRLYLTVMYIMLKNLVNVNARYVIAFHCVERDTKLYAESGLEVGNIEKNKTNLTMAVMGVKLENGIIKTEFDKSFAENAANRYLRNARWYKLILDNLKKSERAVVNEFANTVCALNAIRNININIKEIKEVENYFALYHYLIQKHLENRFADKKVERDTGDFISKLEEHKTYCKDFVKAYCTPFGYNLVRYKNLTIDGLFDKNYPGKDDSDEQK

B1: target 1 G5A,C7A (mixed)
RNA 1: CACCCGUGCAAAAAUGCAGGGGUCUAAAACUGAGCGGAUAACCUCUCUAUGG
RNA 2: GGGAAUGGAUCCACAUCUACGAAUUCGUACCAUAGAGAGGUUAUACACUCACCGAGAUCGGAAGAGCACACGU
B2: target 1 A9C,G15A (mixed)
RNA 1: CACCCGUGCAAAAAUGCAGGGGUCUAAAACUGAGCGGAUAACCUCUCUAUGG
RNA 2: GGGAAUGGAUCCACAUCUACGAAUUCGUACCAUAGAAAGGUUCUCCGCUCACCGAGAUCGGAAGAGCACACGU
B3: target 2 MT 5'PFS UUU 3'PFS AGA (mixed)
RNA 1: CACCCGUGCAAAAUUGCAGGGGUCUAAAACCUUCUCCAAAUUGUUUCAUCCU
RNA 2: GGGAAUGGAUCCACAUCUACGAAUUCUUUAGGAUGAAACAAUUUGGAGAAGAGAAGAUCGGAAGAGCACACGU
B4: target 2 MT 5'PFS CGG 3'PFS ACC (mixed)
RNA 1: CACCCGUGCAAAAUUGCAGGGGUCUAAAACCUUCUCCAAAUUGUUUCAUCCU
RNA 2: GGGAAUGGAUCCACAUCUACGAAUUCCGGAGGAUGAAACAAUUUGGAGAAGACCAGAUCGGAAGAGCACACGU
B5: target 2 MT 5'PFS CGG 3'PFS ACA (mixed)
RNA 1: CACCCGUGCAAAAUUGCAGGGGUCUAAAACCUUCUCCAAAUUGUUUCAUCCU
RNA 2: GGGAAUGGAUCCACAUCUACGAAUUCCGGAGGAUGAAACAAUUUGGAGAAGACAAGAUCGGAAGAGCACACGU
B6: target 2 MT 5'PFS UUU 3'PFS AGG (mixed)
RNA 1: CACCCGUGCAAAAUUGCAGGGGUCUAAAACCUUCUCCAAAUUGUUUCAUCCU
RNA 2: GGGAAUGGAUCCACAUCUACGAAUUCUUUAGGAUGAAACAAUUUGGAGAAGAGGAGAUCGGAAGAGCACACGU
B7: target 2 MT 5'PFS GUC 3'PFS AUG (mixed)
RNA 1: CACCCGUGCAAAAUUGCAGGGGUCUAAAACCUUCUCCAAAUUGUUUCAUCCU
RNA 2: GGGAAUGGAUCCACAUCUACGAAUUCGUCAGGAUGAAACAAUUUGGAGAAGAUGAGAUCGGAAGAGCACACGU
B8: target 2 MT 5'PFS GUC 3'PFS AUA (mixed)
RNA 1: CACCCGUGCAAAAUUGCAGGGGUCUAAAACCUUCUCCAAAUUGUUUCAUCCU
RNA 2: GGGAAUGGAUCCACAUCUACGAAUUCGUCAGGAUGAAACAAUUUGGAGAAGAUAAGAUCGGAAGAGCACACGU
B9: target 2 MT 5'PFS GUC 3'PFS AUC (mixed)
RNA 1: CACCCGUGCAAAAUUGCAGGGGUCUAAAACCUUCUCCAAAUUGUUUCAUCCU
RNA 2: GGGAAUGGAUCCACAUCUACGAAUUCGUCAGGAUGAAACAAUUUGGAGAAGAUCAGAUCGGAAGAGCACACGU
B10: target 2 MT 5'PFS CAU 3'PFS UCU (mixed)
RNA 1: CACCCGUGCAAAAUUGCAGGGGUCUAAAACCUUCUCCAAAUUGUUUCAUCCU
RNA 2: GGGAAUGGAUCCACAUCUACGAAUUCCAUAGGAUGAAACAAUUUGGAGAAGUCUAGAUCGGAAGAGCACACGU
B11: target 2 MT 5'PFS GGC 3'PFS CCA (mixed)
RNA 1: CACCCGUGCAAAAUUGCAGGGGUCUAAAACCUUCUCCAAAUUGUUUCAUCCU
RNA 2: GGGAAUGGAUCCACAUCUACGAAUUCGGCAGGAUGAAACAAUUUGGAGAAGCCAAGAUCGGAAGAGCACACGU
B12: target 2 MT 5'PFS GGU 3'PFS UUU (mixed)
RNA 1: CACCCGUGCAAAAUUGCAGGGGUCUAAAACCUUCUCCAAAUUGUUUCAUCCU
RNA 2: GGGAAUGGAUCCACAUCUACGAAUUCGGUAGGAUGAAACAAUUUGGAGAAGUUUAGAUCGGAAGAGCACACGU
B13: target 1 U11A,A16G (mixed)
RNA 1: CACCCGUGCAAAAAUGCAGGGGUCUAAAACUGAGCGGAUAACCUCUCUAUGG
RNA 2: GGGAAUGGAUCCACAUCUACGAAUUCGUACCAUAGGGAGGAUAUCCGCUCACCGAGAUCGGAAGAGCACACGU
B14: target 2 MT 5'PFS CUG 3'PFS UUU (mixed)
RNA 1: CACCCGUGCAAAAUUGCAGGGGUCUAAAACCUUCUCCAAAUUGUUUCAUCCU
RNA 2: GGGAAUGGAUCCACAUCUACGAAUUCCUGAGGAUGAAACAAUUUGGAGAAGUUUAGAUCGGAAGAGCACACGU
B15: target 2 MT 5'PFS GGC 3'PFS CCG (mixed)
RNA 1: CACCCGUGCAAAAUUGCAGGGGUCUAAAACCUUCUCCAAAUUGUUUCAUCCU
RNA 2: GGGAAUGGAUCCACAUCUACGAAUUCGGCAGGAUGAAACAAUUUGGAGAAGCCGAGAUCGGAAGAGCACACGU
B16: target 2 MT 5'PFS CUA 3'PFS CUU (mixed)
RNA 1: CACCCGUGCAAAAUUGCAGGGGUCUAAAACCUUCUCCAAAUUGUUUCAUCCU
RNA 2: GGGAAUGGAUCCACAUCUACGAAUUCCUAAGGAUGAAACAAUUUGGAGAAGCUUAGAUCGGAAGAGCACACGU
B17: target 2 MT 5'PFS AGG 3'PFS CCU (mixed)
RNA 1: CACCCGUGCAAAAUUGCAGGGGUCUAAAACCUUCUCCAAAUUGUUUCAUCCU
RNA 2: GGGAAUGGAUCCACAUCUACGAAUUCAGGAGGAUGAAACAAUUUGGAGAAGCCUAGAUCGGAAGAGCACACGU
B18: target 2 MT 5'PFS CUG 3'PFS UUA (mixed)
RNA 1: CACCCGUGCAAAAUUGCAGGGGUCUAAAACCUUCUCCAAAUUGUUUCAUCCU
RNA 2: GGGAAUGGAUCCACAUCUACGAAUUCCUGAGGAUGAAACAAUUUGGAGAAGUUAAGAUCGGAAGAGCACACGU
B19: target 2 MT 5'PFS CUG 3'PFS UUC (mixed)
RNA 1: CACCCGUGCAAAAUUGCAGGGGUCUAAAACCUUCUCCAAAUUGUUUCAUCCU
RNA 2: GGGAAUGGAUCCACAUCUACGAAUUCCUGAGGAUGAAACAAUUUGGAGAAGUUCAGAUCGGAAGAGCACACGU
B20: target 2 MT 5'PFS GGU 3'PFS UUC (mixed)
RNA 1: CACCCGUGCAAAAUUGCAGGGGUCUAAAACCUUCUCCAAAUUGUUUCAUCCU
RNA 2: GGGAAUGGAUCCACAUCUACGAAUUCGGUAGGAUGAAACAAUUUGGAGAAGUUCAGAUCGGAAGAGCACACGU
B21: target 2 MT 5'PFS CUG 3'PFS UUG (mixed)
RNA 1: CACCCGUGCAAAAUUGCAGGGGUCUAAAACCUUCUCCAAAUUGUUUCAUCCU
RNA 2: GGGAAUGGAUCCACAUCUACGAAUUCCUGAGGAUGAAACAAUUUGGAGAAGUUGAGAUCGGAAGAGCACACGU
B22: target 2 MT 5'PFS CAC 3'PFS UGU (mixed)
RNA 1: CACCCGUGCAAAAUUGCAGGGGUCUAAAACCUUCUCCAAAUUGUUUCAUCCU
RNA 2: GGGAAUGGAUCCACAUCUACGAAUUCCACAGGAUGAAACAAUUUGGAGAAGUGUAGAUCGGAAGAGCACACGU
B23: target 2 MT 5'PFS UCU 3'PFS ACA (mixed)
RNA 1: CACCCGUGCAAAAUUGCAGGGGUCUAAAACCUUCUCCAAAUUGUUUCAUCCU
RNA 2: GGGAAUGGAUCCACAUCUACGAAUUCUCUAGGAUGAAACAAUUUGGAGAAGACAAGAUCGGAAGAGCACACGU
B24: target 1 insA 3' of 21,insC 3' of 20 (mixed)
RNA 1: CACCCGUGCAAAAAUGCAGGGGUCUAAAACUGAGCGGAUAACCUCUCUAUGG
RNA 2: GGGAAUGGAUCCACAUCUACGAAUUCGUACCAACUAGAGAGGUUAUCCGCUCACCGAGAUCGGAAGAGCACACGU
B25: target 2 MT 5'PFS AGG 3'PFS CCG (mixed)
RNA 1: CACCCGUGCAAAAUUGCAGGGGUCUAAAACCUUCUCCAAAUUGUUUCAUCCU
RNA 2: GGGAAUGGAUCCACAUCUACGAAUUCAGGAGGAUGAAACAAUUUGGAGAAGCCGAGAUCGGAAGAGCACACGU
B26: target 2 MT 5'PFS CGG 3'PFS UUC (mixed)
RNA 1: CACCCGUGCAAAAUUGCAGGGGUCUAAAACCUUCUCCAAAUUGUUUCAUCCU
RNA 2: GGGAAUGGAUCCACAUCUACGAAUUCCGGAGGAUGAAACAAUUUGGAGAAGUUCAGAUCGGAAGAGCACACGU
B27: target 2 MT 5'PFS CGG 3'PFS UUA (mixed)
RNA 1: CACCCGUGCAAAAUUGCAGGGGUCUAAAACCUUCUCCAAAUUGUUUCAUCCU
RNA 2: GGGAAUGGAUCCACAUCUACGAAUUCCGGAGGAUGAAACAAUUUGGAGAAGUUAAGAUCGGAAGAGCACACGU
B28: target 2 MT 5'PFS CGG 3'PFS UUG (mixed)
RNA 1: CACCCGUGCAAAAUUGCAGGGGUCUAAAACCUUCUCCAAAUUGUUUCAUCCU
RNA 2: GGGAAUGGAUCCACAUCUACGAAUUCCGGAGGAUGAAACAAUUUGGAGAAGUUGAGAUCGGAAGAGCACACGU

What follows are binders tested against T1, EsCas13d, nuclease-dead (assay: crRNA (strand 1, pre-loaded); Mg2+; 40 mM Tris-HCl pH 7.5, 150 mM NaCl, 6 mM MgCl2, 1 mM DTT, 0.1% Tween-20, 0.2 mg/ml BSA; 25 C; 10 min per concentration, then washed). Details: tags: His6-TwinStrep-SUMO cleaved; N-terminal SNAP kept (SNAP-Surface 488); label: 3' end held by stalled T7 RNA polymerase.
In the case of B1, the Kd is reported as 10.3 ± 0.6 nM. B2 showed a Kd of 35 ± 5 nM. In the case of B3, the Kd is reported as 7.3 ± 0.8 nM. B4 gave a Kd of 12 ± 1.9 nM. Work on B5 yielded a Kd of 5 ± 0.5 nM. B6 showed a Kd of 4.9 ± 0.6 nM. B7 was tested, and the Kd was 15.6 ± 1.9 nM. Binder B8 has a Kd of 12.6 ± 1.6 nM. B9 showed a Kd of 13.5 ± 1.2 nM. B10 was tested, and the Kd was 4.7 ± 0.7 nM. B11 gave a Kd of 16.9 ± 2.7 nM. In the case of B12, the Kd is reported as 68 ± 20 nM. B13 showed a Kd of 77 ± 15 nM. For B14, the Kd was 5.5 ± 0.5 nM. In the case of B15, the Kd is reported as 17.1 ± 3 nM. B16 was tested, and the Kd was 4 ± 0.8 nM. B17 was tested, and the Kd was 40 ± 15 nM. Work on B18 yielded a Kd of 4.7 ± 0.4 nM. In the case of B19, the Kd is reported as 7.3 ± 1.4 nM. Work on B20 yielded a Kd of 73 ± 28 nM. Binder B21 has a Kd of 5.8 ± 0.9 nM. B22 gave a Kd of 2.27 ± 0.29 nM. B23 gave a Kd of 9.2 ± 1.9 nM. In the case of B24, the Kd is reported as 10 ± 0.5 nM. Work on B25 yielded a Kd of 8.2 ± 0.9 nM. B26 was tested, and the Kd was 10.8 ± 1.7 nM. B27 was tested, and the Kd was 7 ± 1 nM. B28 showed a Kd of 6.5 ± 0.7 nM.
